Results from patent US20230147657A1 (INSERM INSTITUT NATIONAL DE LA SANT ET DE LA RECHERCHE M …, published 2023).

T1: human CD45RC (human, UniProt P08575 26-1306)
T1 construct: Native protein on human blood leukocytes / PBMC / T cells of healthy volunteers; also called hCD45RC
T1 sequence: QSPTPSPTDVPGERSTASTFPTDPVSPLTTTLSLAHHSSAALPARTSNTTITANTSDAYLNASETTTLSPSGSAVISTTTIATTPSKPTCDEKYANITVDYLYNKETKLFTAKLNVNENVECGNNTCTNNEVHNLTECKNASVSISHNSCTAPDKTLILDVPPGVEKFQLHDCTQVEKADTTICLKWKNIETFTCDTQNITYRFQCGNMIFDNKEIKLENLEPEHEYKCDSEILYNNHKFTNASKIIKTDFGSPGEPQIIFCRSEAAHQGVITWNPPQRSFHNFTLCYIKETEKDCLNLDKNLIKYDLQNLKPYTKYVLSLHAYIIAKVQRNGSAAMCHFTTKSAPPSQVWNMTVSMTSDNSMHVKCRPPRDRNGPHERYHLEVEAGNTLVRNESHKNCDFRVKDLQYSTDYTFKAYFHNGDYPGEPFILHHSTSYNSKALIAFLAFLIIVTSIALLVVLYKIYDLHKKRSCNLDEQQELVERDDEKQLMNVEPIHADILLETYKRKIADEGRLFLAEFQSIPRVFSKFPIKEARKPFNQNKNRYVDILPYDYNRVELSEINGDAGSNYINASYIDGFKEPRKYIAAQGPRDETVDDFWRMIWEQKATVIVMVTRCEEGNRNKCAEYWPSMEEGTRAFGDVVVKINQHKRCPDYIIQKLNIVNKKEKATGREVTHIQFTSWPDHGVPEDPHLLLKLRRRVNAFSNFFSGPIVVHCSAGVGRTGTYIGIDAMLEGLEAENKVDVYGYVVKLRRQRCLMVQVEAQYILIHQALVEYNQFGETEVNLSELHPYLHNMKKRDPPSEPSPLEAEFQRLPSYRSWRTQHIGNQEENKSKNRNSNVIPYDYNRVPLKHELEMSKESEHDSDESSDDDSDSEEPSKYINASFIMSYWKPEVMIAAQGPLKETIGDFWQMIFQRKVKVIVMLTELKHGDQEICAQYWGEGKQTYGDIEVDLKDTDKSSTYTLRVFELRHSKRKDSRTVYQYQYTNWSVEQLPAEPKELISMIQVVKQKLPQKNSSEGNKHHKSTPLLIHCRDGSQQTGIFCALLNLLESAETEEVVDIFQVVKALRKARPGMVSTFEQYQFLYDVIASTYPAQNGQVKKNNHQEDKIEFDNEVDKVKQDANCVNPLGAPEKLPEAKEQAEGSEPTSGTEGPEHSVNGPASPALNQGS

T2: human CD45RC in solubilized cell membranes (CD45RC^high PBMCs or CHO cells expressing CD45RC) (human, UniProt P08575 26-1306)
T2 sequence: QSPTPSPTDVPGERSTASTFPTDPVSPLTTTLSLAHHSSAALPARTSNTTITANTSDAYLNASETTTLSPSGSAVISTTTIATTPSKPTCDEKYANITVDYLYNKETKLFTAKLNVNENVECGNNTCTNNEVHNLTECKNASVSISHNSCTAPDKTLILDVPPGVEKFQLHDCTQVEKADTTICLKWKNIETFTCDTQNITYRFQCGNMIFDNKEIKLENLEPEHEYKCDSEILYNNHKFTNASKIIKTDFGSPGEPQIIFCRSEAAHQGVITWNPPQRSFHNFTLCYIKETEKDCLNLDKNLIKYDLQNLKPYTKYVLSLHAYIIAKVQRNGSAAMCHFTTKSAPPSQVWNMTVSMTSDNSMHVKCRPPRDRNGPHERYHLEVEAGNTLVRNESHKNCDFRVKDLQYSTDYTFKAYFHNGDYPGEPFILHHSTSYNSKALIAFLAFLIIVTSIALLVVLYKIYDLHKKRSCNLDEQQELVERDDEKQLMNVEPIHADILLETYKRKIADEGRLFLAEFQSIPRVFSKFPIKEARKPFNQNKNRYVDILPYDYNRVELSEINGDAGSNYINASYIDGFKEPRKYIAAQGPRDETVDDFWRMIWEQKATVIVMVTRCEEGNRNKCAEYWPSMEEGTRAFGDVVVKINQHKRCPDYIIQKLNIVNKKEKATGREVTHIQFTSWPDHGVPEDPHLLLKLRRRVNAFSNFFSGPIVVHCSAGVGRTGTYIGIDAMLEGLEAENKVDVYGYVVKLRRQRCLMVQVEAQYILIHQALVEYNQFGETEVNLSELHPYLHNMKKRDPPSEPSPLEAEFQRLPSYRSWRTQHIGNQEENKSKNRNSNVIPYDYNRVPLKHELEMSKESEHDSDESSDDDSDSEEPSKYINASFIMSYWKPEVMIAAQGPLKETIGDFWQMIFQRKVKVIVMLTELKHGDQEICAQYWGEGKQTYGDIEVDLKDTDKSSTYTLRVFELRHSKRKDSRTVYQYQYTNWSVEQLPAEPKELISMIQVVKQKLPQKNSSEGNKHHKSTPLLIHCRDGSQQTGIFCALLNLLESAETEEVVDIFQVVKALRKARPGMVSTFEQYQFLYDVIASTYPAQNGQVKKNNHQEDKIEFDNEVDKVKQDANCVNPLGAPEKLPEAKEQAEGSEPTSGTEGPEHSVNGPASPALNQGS


How the values were obtained:
human CD45RC [1] = molecular target: T1, human CD45RC; test: cell-based or functional assay
[2] = molecular target: T2, human CD45RC in solubilized cell …; test: SPR (BIAcore 3000 / T200), ABIS-45RC immobilized on CM5 chip, solubilized cell membranes as analyte, 25 °C, single cycle kinetics and calibration free concentration analysis
Excerpt: Briefly, 1×10⁷ CD45RC^high PBMCs or CHO cells expressing CD45RC after plasmid transfection were solubilized using the Mem-PER membrane isolation kit (Thermo-fisher).

human CD45RC [3] = molecular target: T1, human CD45RC; test: flow cytometry on T cells of human PBMC; biotin anti-human IgG + streptavidin PerCP-Cy5.5

apoptosis of human T cells after 18 h with transduced Jurkat cells (annexin V / DAPI) (human CD45RC [1]) [%]	Kd [2] [nM]	koff [2] [s⁻¹]	kon [2] [M⁻¹ s⁻¹]	% of T cells in the CD45RC gate at 1 µg/mL (human CD45RC [3]) [%]	% of T cells in the CD45RC gate at 2 µg/mL (human CD45RC [3]) [%]	Molecule
7 to 8	–	–	–	–	–	Ctrl-CAR (control CAR having a different antigenic specificity) (receptor)
–	50	0.0144	291000	61.3	61.1	ABIS-45RC (antibody, mouse IgG1, kappa, V domains shown, also called murine ABIS-45RC; ABIS-CD45RC) VH: QVQLQQSGAELVRPGTSVKMSCKAAGYTFTNYYIGWVKQRPGHGLEWIGDIFPGGDYANSNEKFKGKATLTADTSSSTAYMQLSSLTSEDSAIYYCVRRNFDYWGQGTTLTVSS VL: QIVLTQSPTIMSASPGEKVTITCSASSSVSYMHWFQQKTGTSPRLWIYNTSNLPSGVPARFSGSGSGTSYSLTISRMEAEDAATYYCQQRSSYPLTFGAGTKLELKR
